Data from article PMC6205638, “Exploring natural genetic variation in tomato sucrose synthases on the basis of increased kinetic properties” (PLoS ONE, 2018).

Biological target: Tomato sucrose synthase SuSy3-haplotype#1 (cv Moneymaker) (S. lycopersicum cv Moneymaker)
Assay: native gel or EMSA; Native PAGE on Mini-PROTEAN TGX gel 4-20% of the IMAC-purified product; size estimated against a prestained protein ladder

stoichiometry N: 4
Substance: Tomato sucrose synthase SuSy3-haplotype#1 (cv Moneymaker) (enzyme)
